Data on 30 variants can be found in the RNAGym collection of RNA variant scans (doi:10.1093/molbev/msab373).

First the molecules themselves.
B1: Azoarcus group I ribozyme (parent)
chain: GUGCCUUGCGCCGGGAAACCACGCAAGGGAUGGUGUCAAAUUCGGCGAAACCUAAGCGCCCGCCCGGGCGUAUGGCAACGCCGAGCCAAGCUUCGGCGCCUGCGCCGAUGAAGGUGUAGAGACUAGACGGCACCCACCUAAGGCAAACGCUAUGGUGAAGGCAUAGUCCAGGGAGUGGCGAAAGUCACACAAACCGG

In the series the parent is B1. Briefly: reverse-splicing fitness (ratio to wild type); higher = more active; in vitro selection; Mg2+ level not given. The essentials: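 An in vitro group I ribozyme library with randomized positions was T7-transcribed and gel-purified. In triplicate, 10 pmol RNA in EPPS pH 7.5 was reacted with 50 pmoles of a 30-nt RNA substrate for 1 h at 37 °C across several added MgCl2 levels (1–48 mM), then stopped with EDTA. Products were reverse transcribed from a substrate-complementary primer, PCR-amplified and sequenced (HiSeq 4000). Fitness is a variant's read proportion after selection over that before, normalised to wild type.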
For GUGCCUUGCGCCGGGAAACCACGCAAGGGAUGGUGUCAAAUUCGGCGAAACCUAAGCGCCCGCCCGGGCGUAUGGCAACGCAGAGCCAAGCUUCGGCGCCUGCGCCGAUGCAGGUGUAGGGACUAGACGGCACCCACCUAAGGCUAACGUUAUGGUGAAGGCAUAGUCCAGGGAGUGGCGAAAGUCACACAAACCGG, the reverse-splicing fitness came out at 0.0124. In the case of GUGCCUUGCGCCGGGAAACCACGCAAGGGAUGGUGUCAAAUUCGGCGAAACCUAAGCGCCCGCCCGGGCGUAUGGCAACGCAGAGCCAAGCUUCGGCGCCUGCGCCGAUGCAGGUGUAGGGACUAGACGGCACCCACCUAAGGCUAACGGUAUGGUGAAGGCAUAGUCCAGGGAGUGGCGAAAGUCACACAAACCGG, the reverse-splicing fitness came to 0.00701. Next, GUGCCUUGCGCCGGGAAACCACGCAAGGGAUGGUGUCAAAUUCGGCGAAACCUAAGCGCCCGCCCGGGCGUAUGGCAACGCAGAGCCAAGCUUCGGCGCCUGCGCCGAUGCAGGUGUAGGGACUAGACGGCACCCACCUAAGGCUAACGGUAUGGUGAAGGCAUAGUCAAGGGAGCGGCGAAAGUCACACAAACCGG: 0.00969.

For GUGCCUUGCGCCGGGAAACCACGCAAGGGAUGGUGUCAAAUUCGGCGAAACCUAAGCGCCCGCCCGGGCGUAUGGCAACGCAGAGCCAAGCUUCGGCGCCUGCGCCGAUGCAGGUGUAGGGACUAGACGGCACCCACCUAAGGCUAACGGUAUGGUGAAGGCAUAGUCAAGGGAGGGGCGAAAGUCACACAAACCGG, the reverse-splicing fitness came to 0.00558. Next, GUGCCUUGCGCCGGGAAACCACGCAAGGGAUGGUGUCAAAUUCGGCGAAACCUAAGCGCCCGCCCGGGCGUAUGGCAACGCAGAGCCAAGCUUCGGCGCCUGCGCCGAUGCAGGUGUAGGGACUAGACGGCACCCACCUAAGGCUAACGGUAUGGUGAAGGCAUAGUCAAGGGAGAGGCGAAAGUCACACAAACCGG: 0.00941; GUGCCUUGCGCCGGGAAACCACGCAAGGGAUGGUGUCAAAUUCGGCGAAACCUAAGCGCCCGCCCGGGCGUAUGGCAACGCAGAGCCAAGCUUCGGCGCCUGCGCCGAUGCAGGUGUAGGGACUAGACGGCACCCACCUAAGGCUAACGAUAUGGUGAAGGCAUAGUCUAGGGAGUGGCGAAAGUCACACAAACCGG: 0.00736; GUGCCUUGCGCCGGGAAACCACGCAAGGGAUGGUGUCAAAUUCGGCGAAACCUAAGCGCCCGCCCGGGCGUAUGGCAACGCAGAGCCAAGCUUCGGCGCCUGCGCCGAUGCAGGUGUAGGGACUAGACGGCACCCACCUAAGGCUAACGUUAUGGUGAAGGCAUAGUCAAGGGAGAGGCGAAAGUCACACAAACCGG: 0.0123. In the case of GUGCCUUGCGCCGGGAAACCACGCAAGGGAUGGUGUCAAAUUCGGCGAAACCUAAGCGCCCGCCCGGGCGUAUGGCAACGCAGAGCCAAGCUUCGGCGCCUGCGCCGAUGCAGGUGUAGGGACUAGACGGCACCCACCUAAGGCUAACGUUAUGGUGAAGGCAUAGUCAAGGGAGCGGCGAAAGUCACACAAACCGG, the reverse-splicing fitness was 0.00986. In the case of GUGCCUUGCGCCGGGAAACCACGCAAGGGAUGGUGUCAAAUUCGGCGAAACCUAAGCGCCCGCCCGGGCGUAUGGCAACGCAGAGCCAAGCUUCGGCGCCUGCGCCGAUGCAGGUGUAGGGACUAGACGGCACCCACCUAAGGCUAACGUUAUGGUGAAGGCAUAGUCAAGGGAGUGGCGAAAGUCACACAAACCGG, the reverse-splicing fitness was found to be 0.00903.

As to GUGCCUUGCGCCGGGAAACCACGCAAGGGAUGGUGUCAAAUUCGGCGAAACCUAAGCGCCCGCCCGGGCGUAUGGCAACGCAGAGCCAAGCUUCGGCGCCUGCGCCGAUGCAGGUGUAGGGACUAGACGGCACCCACCUAAGGCUAACGGUAUGGUGAAGGCAUAGUCUAGGGAGUGGCGAAAGUCACACAAACCGG, the reverse-splicing fitness worked out at 0.00788. For the variant GUGCCUUGCGCCGGGAAACCACGCAAGGGAUGGUGUCAAAUUCGGCGAAACCUAAGCGCCCGCCCGGGCGUAUGGCAACGCAGAGCCAAGCUUCGGCGCCUGCGCCGAUGCAGGUGUAGGGACUAGACGGCACCCACCUAAGGCUAACGGUAUGGUGAAGGCAUAGUCGAGGGAGUGGCGAAAGUCACACAAACCGG, the reverse-splicing fitness was 0.00749. Next, GUGCCUUGCGCCGGGAAACCACGCAAGGGAUGGUGUCAAAUUCGGCGAAACCUAAGCGCCCGCCCGGGCGUAUGGCAACGCAGAGCCAAGCUUCGGCGCCUGCGCCGAUGCAGGUGUAGGGACUAGACGGCACCCACCUAAGGCUAACGGUAUGGUGAAGGCAUAGUCAAGGGAGUGGCGAAAGUCACACAAACCGG: 0.00851. GUGCCUUGCGCCGGGAAACCACGCAAGGGAUGGUGUCAAAUUCGGCGAAACCUAAGCGCCCGCCCGGGCGUAUGGCAACGCAGAGCCAAGCUUCGGCGCCUGCGCCGAUGCAGGUGUAGGGACUAGACGGCACCCACCUAAGGCUAACGGUAUGGUGAAGGCAUAGUCCAGGGAGGGGCGAAAGUCACACAAACCGG: the reverse-splicing fitness was 0.0034. For the variant GUGCCUUGCGCCGGGAAACCACGCAAGGGAUGGUGUCAAAUUCGGCGAAACCUAAGCGCCCGCCCGGGCGUAUGGCAACGCAGAGCCAAGCUUCGGCGCCUGCGCCGAUGCAGGUGUAGGGACUAGACGGCACCCACCUAAGGCUAACGGUAUGGUGAAGGCAUAGUCCAGGGAGCGGCGAAAGUCACACAAACCGG, the reverse-splicing fitness was found to be 0.0147. With GUGCCUUGCGCCGGGAAACCACGCAAGGGAUGGUGUCAAAUUCGGCGAAACCUAAGCGCCCGCCCGGGCGUAUGGCAACGCAGAGCCAAGCUUCGGCGCCUGCGCCGAUGCAGGUGUAGGGACUAGACGGCACCCACCUAAGGCUAACGGUAUGGUGAAGGCAUAGUCCAGGGAGAGGCGAAAGUCACACAAACCGG the figure was 0.0064. With GUGCCUUGCGCCGGGAAACCACGCAAGGGAUGGUGUCAAAUUCGGCGAAACCUAAGCGCCCGCCCGGGCGUAUGGCAACGCAGAGCCAAGCUUCGGCGCCUGCGCCGAUGCAGGUGUAGGGACUAGACGGCACCCACCUAAGGCUAACGAUAUGGUGAAGGCAUAGUCGAGGGAGGGGCGAAAGUCACACAAACCGG the figure was 0.00576; with GUGCCUUGCGCCGGGAAACCACGCAAGGGAUGGUGUCAAAUUCGGCGAAACCUAAGCGCCCGCCCGGGCGUAUGGCAACGCAGAGCCAAGCUUCGGCGCCUGCGCCGAUGCAGGUGUAGGGACUAGACGGCACCCACCUAAGGCUAACGAUAUGGUGAAGGCAUAGUCGAGGGAGAGGCGAAAGUCACACAAACCGG, 0.0138; with GUGCCUUGCGCCGGGAAACCACGCAAGGGAUGGUGUCAAAUUCGGCGAAACCUAAGCGCCCGCCCGGGCGUAUGGCAACGCAGAGCCAAGCUUCGGCGCCUGCGCCGAUGCAGGUGUAGGGACUAGACGGCACCCACCUAAGGCUAACGAUAUGGUGAAGGCAUAGUCGAGGGAGCGGCGAAAGUCACACAAACCGG, 0.0156. Take GUGCCUUGCGCCGGGAAACCACGCAAGGGAUGGUGUCAAAUUCGGCGAAACCUAAGCGCCCGCCCGGGCGUAUGGCAACGCAGAGCCAAGCUUCGGCGCCUGCGCCGAUGCAGGUGUAGGGACUAGACGGCACCCACCUAAGGCUAACGAUAUGGUGAAGGCAUAGUCUAGGGAGAGGCGAAAGUCACACAAACCGG: the reverse-splicing fitness was found to be 0.017. Next, GUGCCUUGCGCCGGGAAACCACGCAAGGGAUGGUGUCAAAUUCGGCGAAACCUAAGCGCCCGCCCGGGCGUAUGGCAACGCAGAGCCAAGCUUCGGCGCCUGCGCCGAUGCAGGUGUAGGGACUAGACGGCACCCACCUAAGGCUAACGAUAUGGUGAAGGCAUAGUCUAGGGAGGGGCGAAAGUCACACAAACCGG: 0.00563. Next, GUGCCUUGCGCCGGGAAACCACGCAAGGGAUGGUGUCAAAUUCGGCGAAACCUAAGCGCCCGCCCGGGCGUAUGGCAACGCAGAGCCAAGCUUCGGCGCCUGCGCCGAUGCAGGUGUAGGGACUAGACGGCACCCACCUAAGGCUAACGAUAUGGUGAAGGCAUAGUCUAGGGAGCGGCGAAAGUCACACAAACCGG: 0.0127.

GUGCCUUGCGCCGGGAAACCACGCAAGGGAUGGUGUCAAAUUCGGCGAAACCUAAGCGCCCGCCCGGGCGUAUGGCAACGCAGAGCCAAGCUUCGGCGCCUGCGCCGAUGCAGGUGUAGGGACUAGACGGCACCCACCUAAGGCUAACGGUAUGGUGAAGGCAUAGUCGAGGGAGCGGCGAAAGUCACACAAACCGG: the reverse-splicing fitness is 0.00484. On to GUGCCUUGCGCCGGGAAACCACGCAAGGGAUGGUGUCAAAUUCGGCGAAACCUAAGCGCCCGCCCGGGCGUAUGGCAACGCAGAGCCAAGCUUCGGCGCCUGCGCCGAUGCAGGUGUAGGGACUAGACGGCACCCACCUAAGGCUAACGGUAUGGUGAAGGCAUAGUCGAGGGAGAGGCGAAAGUCACACAAACCGG, for which the reverse-splicing fitness amounted to 0.00626. As for GUGCCUUGCGCCGGGAAACCACGCAAGGGAUGGUGUCAAAUUCGGCGAAACCUAAGCGCCCGCCCGGGCGUAUGGCAACGCAGAGCCAAGCUUCGGCGCCUGCGCCGAUGCAGGUGUAGGGACUAGACGGCACCCACCUAAGGCUAACGGUAUGGUGAAGGCAUAGUCGAGGGAGGGGCGAAAGUCACACAAACCGG, the reverse-splicing fitness is 0.00527. With GUGCCUUGCGCCGGGAAACCACGCAAGGGAUGGUGUCAAAUUCGGCGAAACCUAAGCGCCCGCCCGGGCGUAUGGCAACGCAGAGCCAAGCUUCGGCGCCUGCGCCGAUGCAGGUGUAGGGACUAGACGGCACCCACCUAAGGCUAACGAUAUGGUGAAGGCAUAGUCCAGGGAGAGGCGAAAGUCACACAAACCGG, the reverse-splicing fitness was determined as 0.0139.

For GUGCCUUGCGCCGGGAAACCACGCAAGGGAUGGUGUCAAAUUCGGCGAAACCUAAGCGCCCGCCCGGGCGUAUGGCAACGCAGAGCCAAGCUUCGGCGCCUGCGCCGAUGCAGGUGUAGGGACUAGACGGCACCCACCUAAGGCUAACGAUAUGGUGAAGGCAUAGUCCAGGGAGGGGCGAAAGUCACACAAACCGG, the reverse-splicing fitness was 0.00589. As to GUGCCUUGCGCCGGGAAACCACGCAAGGGAUGGUGUCAAAUUCGGCGAAACCUAAGCGCCCGCCCGGGCGUAUGGCAACGCAGAGCCAAGCUUCGGCGCCUGCGCCGAUGCAGGUGUAGGGACUAGACGGCACCCACCUAAGGCUAACGAUAUGGUGAAGGCAUAGUCCAGGGAGCGGCGAAAGUCACACAAACCGG, the reverse-splicing fitness was found to be 0.02. With GUGCCUUGCGCCGGGAAACCACGCAAGGGAUGGUGUCAAAUUCGGCGAAACCUAAGCGCCCGCCCGGGCGUAUGGCAACGCAGAGCCAAGCUUCGGCGCCUGCGCCGAUGCAGGUGUAGGGACUAGACGGCACCCACCUAAGGCUAACGGUAUGGUGAAGGCAUAGUCUAGGGAGCGGCGAAAGUCACACAAACCGG the figure was 0.0111; with GUGCCUUGCGCCGGGAAACCACGCAAGGGAUGGUGUCAAAUUCGGCGAAACCUAAGCGCCCGCCCGGGCGUAUGGCAACGCAGAGCCAAGCUUCGGCGCCUGCGCCGAUGCAGGUGUAGGGACUAGACGGCACCCACCUAAGGCUAACGGUAUGGUGAAGGCAUAGUCUAGGGAGGGGCGAAAGUCACACAAACCGG, 0.00542. For GUGCCUUGCGCCGGGAAACCACGCAAGGGAUGGUGUCAAAUUCGGCGAAACCUAAGCGCCCGCCCGGGCGUAUGGCAACGCAGAGCCAAGCUUCGGCGCCUGCGCCGAUGCAGGUGUAGGGACUAGACGGCACCCACCUAAGGCUAACGGUAUGGUGAAGGCAUAGUCUAGGGAGAGGCGAAAGUCACACAAACCGG, the reverse-splicing fitness came to 0.00693.
